Results published in patent publication WO2007039645A1.

Biological target: VSG on Trypanosoma brucei brucei AnTat 1.1 parasites (Trypanosoma brucei brucei AnTat 1.1)
Assay: cell-based or functional assay
Conditions: scale: % of the parasites lysed at 10 μg/ml

VSG on Trypanosoma brucei brucei AnTat 1.1 parasites (Trypanosoma brucei brucei AnTat 1.1), sequence (P06015 30-480): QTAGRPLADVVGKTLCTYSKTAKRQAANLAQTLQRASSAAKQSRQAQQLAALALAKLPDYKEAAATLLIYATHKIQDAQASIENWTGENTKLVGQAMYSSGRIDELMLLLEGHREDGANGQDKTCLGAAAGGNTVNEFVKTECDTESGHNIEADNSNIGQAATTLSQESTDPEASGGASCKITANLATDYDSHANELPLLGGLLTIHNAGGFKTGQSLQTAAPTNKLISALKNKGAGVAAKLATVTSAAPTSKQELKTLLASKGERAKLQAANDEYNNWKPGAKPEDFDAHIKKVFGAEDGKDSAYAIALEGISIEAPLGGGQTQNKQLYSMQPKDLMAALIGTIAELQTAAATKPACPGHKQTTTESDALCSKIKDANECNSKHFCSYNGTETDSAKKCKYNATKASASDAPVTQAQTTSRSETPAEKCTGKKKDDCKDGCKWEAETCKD

NbAn33-Tr-apoL-I (from UniProt O14791 28-342)
trypanolytic activity: 100
